Assay results published in patent WO2009138413A1 (dated 2009).

Columns and labels:
[1] = biological target: human IL-13 (human, UniProt P35225 35-146); test: cell-based or functional assay
[2] = biological target: cynomolgus IL-13 (cynomolgus, UniProt Q0PW92 21-132); test: cell-based or functional assay
Sequence of cynomolgus IL-13 (Q0PW92 entry or part of it): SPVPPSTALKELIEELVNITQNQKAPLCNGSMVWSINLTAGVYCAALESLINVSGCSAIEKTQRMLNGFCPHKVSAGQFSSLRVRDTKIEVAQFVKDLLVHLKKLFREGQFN

Sequence of human IL-13 (P35225 35-146 limits assumed): as the sequence (Q0PW92 entry or part of it) above, with S1G, K10R, V42M, N67S, R83H, V100L counted along it

Binder | EC50, FIG. 1A HEK STAT6 assay with human IL-13, sample JAL050308_20p [1] [nM] | EC50, FIG. 1A HEK STAT6 assay with human IL-13, sample JAL050308_20s [1] [nM] | EC50, FIG. 1B HEK STAT6 assay with cynomolgus IL-13, sample JAL050308_20p [2] [nM] | EC50, FIG. 1B HEK STAT6 assay with cynomolgus IL-13, sample JAL050308_20s [2] [nM] | EC50, FIG. 1A HEK STAT6 assay with human IL-13 [1] [nM] | EC50, FIG. 1B HEK STAT6 assay with cynomolgus IL-13 [2] [nM]
DOM10-275-78 (VHH) VHH: EVQLLESGGGLVQPGGSLRLSCVASGFTFDVAEMDWVRQAPGKGLEWVSTISPSRRGTYYADSVKGRFTISRDNSKNTLYLQMNSLRAEDTAVYYCAKAYTGRSLWGPGTLVTVSS | 2.65 | 2.42 | 1.37 | 1.37 | – | –
DOM10-53-474 (VHH) VHH: GVQLLESGGGLVQPGGSLRLSCAASGFTFAWYDMGWVRQAPGKGLEWVSSIDWHGEVTYYADSVKGRFTISRDNSKNTLYLQMNSLRAEDTAVYYCATAEDEPGYDYWGQGTLVTVSS | – | – | – | – | 0.72 | 10.8
